The data set concerns the molecule itself. Briefly: SEC; gel filtration of the purified samples on a HiPrep 26/60 Sephacryl S-200 HR column, used to separate the monomeric fraction. Background: SEC sorts molecules by how far they enter the pores of the column.

B1: FAD synthetase from Corynebacterium ammoniagenes (wild type) (enzyme)
chain: MDIWYGTAAVPKDLDNSAVTIGVFDGVHRGHQKLINATVEKAREVGAKAIMVTFDPHPVSVFLPRRAPLGITTLAERFALAESFGIDGVLVIDFTRELSGTSPEKYVEFLLEDTLHASHVVVGANFTFGENAAGTADSLRQICQSRLTVDVIDLLDDEGVRISSTTVREFLSEGDVARANWALGRHFYVTGPVVRGAGRGGKELGFPTANQYFHDTVALPADGVYAGWLTILPTEAPVSGNMEPEVAYAAAISVGTNPTFGDEQRSVESFVLDRDADLYGHDVKVEFVDHVRAMEKFDSVEQLLEVMAKDVQKTRTLLAQDVQAHKMAPETYFLQAES
notes: FAD synthetase (bifunctional RFK/FMNAT) of Corynebacterium ammoniagenes; N-terminal FMNAT-module residues 1-186 and C-terminal RFK-module residues 187-338; also called CaFADS; WT CaFADS; source: gel filtration on Sephacryl S-200 HR
On to B1, for which the binding result is “binds”.

For the origin of these results see paper PMC3509593, “Role of Key Residues at the Flavin Mononucleotide (FMN):Adenylyltransferase Catalytic Site of the Bifunctional Riboflavin Kinase/Flavin Adenine Dinucleotide (FAD) Synthetase from Corynebacterium ammoniagenes” (International Journal of Molecular Sciences, 2012).
